Values quoted from earlier work in article PMC4166121.

Molecular target: p38 MAPK (UniProt Q16539)
Sequence (Q16539 2-360): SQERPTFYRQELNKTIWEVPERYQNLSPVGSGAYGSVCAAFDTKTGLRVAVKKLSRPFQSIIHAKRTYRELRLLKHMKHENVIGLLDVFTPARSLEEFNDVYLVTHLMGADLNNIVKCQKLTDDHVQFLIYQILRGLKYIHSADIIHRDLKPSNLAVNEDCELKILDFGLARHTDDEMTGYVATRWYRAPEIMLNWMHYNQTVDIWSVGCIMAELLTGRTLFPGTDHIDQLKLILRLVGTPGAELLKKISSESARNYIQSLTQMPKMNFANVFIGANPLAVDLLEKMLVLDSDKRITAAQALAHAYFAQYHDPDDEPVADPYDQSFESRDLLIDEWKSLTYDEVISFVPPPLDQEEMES

eNOS, sequence (P29474 2-1203): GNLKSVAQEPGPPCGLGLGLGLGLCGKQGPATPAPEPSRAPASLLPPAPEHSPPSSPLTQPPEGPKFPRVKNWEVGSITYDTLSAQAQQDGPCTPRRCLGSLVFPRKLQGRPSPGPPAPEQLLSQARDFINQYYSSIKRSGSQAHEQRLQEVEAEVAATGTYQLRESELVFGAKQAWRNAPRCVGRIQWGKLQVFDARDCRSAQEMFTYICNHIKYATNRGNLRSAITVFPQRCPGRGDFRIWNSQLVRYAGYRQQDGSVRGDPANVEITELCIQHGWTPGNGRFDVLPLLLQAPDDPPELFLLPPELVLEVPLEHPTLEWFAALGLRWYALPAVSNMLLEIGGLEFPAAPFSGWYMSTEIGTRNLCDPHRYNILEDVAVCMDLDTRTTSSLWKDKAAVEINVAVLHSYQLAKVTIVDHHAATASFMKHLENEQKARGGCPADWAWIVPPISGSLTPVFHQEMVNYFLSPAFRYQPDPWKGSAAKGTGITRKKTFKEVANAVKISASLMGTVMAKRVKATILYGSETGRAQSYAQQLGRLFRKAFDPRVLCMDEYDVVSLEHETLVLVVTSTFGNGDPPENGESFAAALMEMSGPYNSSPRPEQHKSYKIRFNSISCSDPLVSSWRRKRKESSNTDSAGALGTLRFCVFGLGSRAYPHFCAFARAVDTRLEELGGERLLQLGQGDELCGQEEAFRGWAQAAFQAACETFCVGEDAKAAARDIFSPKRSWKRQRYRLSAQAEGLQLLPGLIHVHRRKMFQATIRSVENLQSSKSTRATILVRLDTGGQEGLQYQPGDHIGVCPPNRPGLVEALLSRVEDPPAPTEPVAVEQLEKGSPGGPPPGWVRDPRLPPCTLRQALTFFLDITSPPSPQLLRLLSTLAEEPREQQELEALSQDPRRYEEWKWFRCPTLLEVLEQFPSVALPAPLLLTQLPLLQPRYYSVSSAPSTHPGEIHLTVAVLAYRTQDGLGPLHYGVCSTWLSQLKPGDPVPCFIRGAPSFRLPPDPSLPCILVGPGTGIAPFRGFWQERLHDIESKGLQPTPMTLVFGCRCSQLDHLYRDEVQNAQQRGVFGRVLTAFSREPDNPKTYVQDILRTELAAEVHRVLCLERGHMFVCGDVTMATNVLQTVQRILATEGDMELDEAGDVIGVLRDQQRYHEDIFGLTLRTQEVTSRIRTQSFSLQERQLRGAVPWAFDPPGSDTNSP

Kd: 80 pM
Substance: eNOS (from UniProt P29474)
